The values that follow come from paper PMC3265493, “Inhibitory Potential of Prodomain of Plasmodium falciparum Protease Serine Repeat Antigen 5 for Asexual Blood Stages of Parasite” (PLoS ONE, 2012).

This test deals with T1, SERA5 catalytic domain (SERA5 C) (Plasmodium falciparum 3D7, UniProt Q9TY95 578-828).
T1 construct: Plasmodium falciparum 3D7 serine repeat antigen 5 (SERA5), PlasmoDB PFB0340c, 251-residue enzyme (catalytic) domain E578 to N828, amplified from cDNA; Cloned in pProExHTb between BamHI and XhoI with N-terminal hexahistidine tag; no tag removal is described; also called enzyme domain
T1 sequence: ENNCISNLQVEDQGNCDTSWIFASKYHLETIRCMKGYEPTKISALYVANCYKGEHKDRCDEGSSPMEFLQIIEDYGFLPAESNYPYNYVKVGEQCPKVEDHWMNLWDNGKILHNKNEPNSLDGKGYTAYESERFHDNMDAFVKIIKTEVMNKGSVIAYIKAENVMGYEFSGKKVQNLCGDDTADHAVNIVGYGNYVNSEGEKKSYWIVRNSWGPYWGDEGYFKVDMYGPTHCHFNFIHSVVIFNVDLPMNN
As to the kind of experiment: CD spectroscopy; CD spectra of SERA5 C (5 uM) in PBS pH 7.4 alone and with 5 uM peptide (1:1 molar ratio), 25 C. The conditions noted are these: both partners purified.

B1: heptapeptide DNSDNMF (D560 to F566 of SERA5 sequence) (peptide)
peptide: DNSDNMF
notes: C-terminal region of the prodomain of Plasmodium falciparum serine repeat antigen 5 (SERA5), residues D560 to F566; Made on Rink amide resin, so the C-terminus is probably an amide; also called the heptapeptide; the peptide; source: synthetic peptide (solid phase, Fmoc chemistry, Rink Amide MHBA resin; RP-HPLC purified)
In the case of B1, the binding result is “binds”.
